This test addresses soluble human PEX3 (reading frame from G25, C235S) (human) (UniProt P56589). As to the kind of experiment: native MS; PEX3 and PEX19 mixed in equimolar concentrations (5-10 µM), overnight at 4°C in 20 mM sodium phosphate, 300 mM NaCl, 1 mM DTT, pH 8.0; nano-electrospray on a QToF I under conditions that preserve non-covalent interactions; complex analysed at 10 µM.

In general, stoichiometry N refers to a count of units in the complex or per binding partner.

UniProt P56589, sequence (P56589 25-373 C235S): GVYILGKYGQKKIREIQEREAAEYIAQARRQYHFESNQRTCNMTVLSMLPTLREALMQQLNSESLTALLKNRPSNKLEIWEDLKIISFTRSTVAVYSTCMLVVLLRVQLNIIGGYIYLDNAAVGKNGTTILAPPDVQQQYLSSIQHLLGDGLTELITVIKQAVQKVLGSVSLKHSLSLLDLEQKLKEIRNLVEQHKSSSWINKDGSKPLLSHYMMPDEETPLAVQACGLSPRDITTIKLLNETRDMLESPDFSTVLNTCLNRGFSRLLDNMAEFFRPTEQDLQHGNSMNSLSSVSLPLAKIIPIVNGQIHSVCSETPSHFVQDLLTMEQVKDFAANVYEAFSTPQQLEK

With “full length human PEX19 with an N-terminal His-tag (from UniProt P56589 1-373) (natural protein)”, the stoichiometry N is 1.

These data come from PMC4111287.
